Here are results for three molecules from US20250223361A1 (MABTREE BIOLOGICS, published 2025).

The target of assay [1] is T1, human PD-L1.his Protein (human, UniProt Q9NZQ7 19-238, limits assumed).
T1 construct: Produced in-house (Genscript); also called HuPD-L1-his; not shown: his tag
Nature of the assay: ELISA, coated human PD-L1.his, absorbance at 450 nm; lower table. Background: An ELISA detects its analyte on a solid surface through an enzyme-linked reagent.

Assay [2] concerns the target T1, human PD-L1.his Protein. Nature of the assay: ELISA, coated human PD-L1.his, absorbance at 450 nm; upper table.
The target of assay [3] is T1, human PD-L1.his Protein. Nature of the assay: SPR Biacore T200, antibody Fc-captured, antigen as analyte. The protocol:
The affinity of purified antibody binding to antigen was individually determined using a Surface Plasmon Resonance (SPR) biosensor, BiacoreT200 (GE Healthcare). Antibodies were immobilized on the sensor chip through Fc capture method. Antigen was used as the analyte. The data of dissociation (kd) and association (ka) rate constants were obtained using Biacore T200 evaluation software. The equilibrium dissociation constants (KD) were calculated from the ratio of kd over ka.
A general note: Surface plasmon resonance follows binding to a sensor surface in real time, without labels.

Assay [4] has as its target T2, human PD-L1 on CHO cells (human, UniProt Q9NZQ7 19-290). Nature of the assay: cell-based or functional assay.
Assay [5] concerns the target T1, human PD-L1.his Protein. Nature of the assay: GATOR instrument kinetics, HuPD-L1-his; reference parental antibody AHP01679.
The target in assay [6] is T2, human PD-L1 on CHO cells. Nature of the assay: cell-based or functional assay. This is another data set of the same source.
The target of assay [7] is T1, human PD-L1.his Protein. Nature of the assay: GATOR instrument kinetics, HuPD-L1-his.
Assay [8] has as its target T1, human PD-L1.his Protein. Nature of the assay: ELISA, coated human PD-L1.his, absorbance at 450 nm.
Description: To evaluate the fully human IgGs binding activity to human PD-L1 protein, ELISA EC50 determination was performed. Briefly, human PD-L1.his protein was coated with 0.5 μg/ml in CBS, 100 μl/well at 4° C., incubated for overnight. Washed three times and blocking with 3% BSA-PBS at 37° C. for 1 hour. Then diluted fully human IgGs in 1% BSA-PBS were added to the blocked wells. […] Incubation at room temperature for 2 hours. […] The plates were washed for additional 6 times and the substrate solution were added to the wells for developing reaction. The absorption was measured at 450nm using a spectrometer.

T1 sequence (Q9NZQ7 19-238 limits assumed): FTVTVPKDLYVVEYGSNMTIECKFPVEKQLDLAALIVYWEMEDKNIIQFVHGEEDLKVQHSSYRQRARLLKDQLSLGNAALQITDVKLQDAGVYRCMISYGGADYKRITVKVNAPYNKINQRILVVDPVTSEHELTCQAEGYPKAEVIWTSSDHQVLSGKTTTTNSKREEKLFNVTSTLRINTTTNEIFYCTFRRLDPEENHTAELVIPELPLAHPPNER
T2 sequence (Q9NZQ7 19-290): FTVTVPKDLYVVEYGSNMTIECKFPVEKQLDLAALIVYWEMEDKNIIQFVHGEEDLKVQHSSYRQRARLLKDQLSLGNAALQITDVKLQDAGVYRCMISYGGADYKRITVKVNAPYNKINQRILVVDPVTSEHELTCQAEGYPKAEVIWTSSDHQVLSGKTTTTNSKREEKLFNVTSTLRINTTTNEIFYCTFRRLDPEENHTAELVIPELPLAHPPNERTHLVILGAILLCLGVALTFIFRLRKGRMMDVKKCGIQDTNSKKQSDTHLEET

In assay [1], negative control human IgG (antibody) displayed an absorbance at 0.00564503 ng/ml of 0.058, an absorbance at 0.01693509 ng/ml of 0.067, an absorbance at 0.05080526 ng/ml of 0.061 and an absorbance at 0.15241579 ng/ml of 0.064. Moreover, in assay [1], the absorbance at 0.45724737 ng/ml is 0.057, the absorbance at 1.37174211 ng/ml was 0.065, the absorbance at 12.345679 ng/ml amounted to 0.064 and the absorbance at 37.037037 ng/ml was found to be 0.059. In assay [1], this molecule returned an absorbance at 111.111111 ng/ml of 0.067, an absorbance at 333.333333 ng/ml of 0.059 and an absorbance at 1000 ng/ml of 0.081. In assay [2], this molecule yielded an absorbance at 1.3717 ng/ml of 0.078, an absorbance at 4.1152 ng/ml of 0.052, an absorbance at 37.0370 ng/ml of 0.052 and an absorbance at 111.1111 ng/ml of 0.054. Moreover, in assay [2], the absorbance at 333.3333 ng/ml was determined as 0.058, the absorbance at 1000 ng/ml is 0.069 and the absorbance at 3000 ng/ml amounted to 0.121.

B1: AHP01679 (antibody, human IgG1, lambda, V domains shown)
VH: EVQLVQSGAEVKKPGSSVKVSCKASGGTFSSYAISWVRQAPGQGLEWMGRIIPILGIANYAQKFQGRVTITADKSTSTAYMELSSLRSEDTAVYYCTTFIQQWLYAFDIWGQGTMVTVSS
VL: QAVLTQPSSVSGAPGQRVTISCTGSSSNIGAGYDVHWYQQLPGTAPKLLIYGNNNRPSGVPDRFSGSKSGTSASLAITGLQAEDEADYYCQSYDSSLSGSVFGGGTKLTVLG
notes: Fully human full-length IgG (IgG1 constant region, lambda light chain); also called Parental Ab; parental antibody
In assay [3], B1 came in with a Kd of 4.09 nM, an off-rate (koff) of 0.00259 s⁻¹ and a kon of 635000 M⁻¹ s⁻¹. Also, in assay [4], the “EC50 (read off the curve), PD-1/PD-L1 blockade luciferase reporter assay [panel E]” value is roughly 0.2 µg/mL and the “EC50, PD-1/PD-L1 blockade luciferase reporter assay [panel E]” value was found to be 0.153 µg/mL. In assay [5], the “KD (Parental Ab)/KD (Candidate Ab)” value was determined as 1 fold. Also, in assay [6], the “EC50 (assay not named; EC50 is defined in paragraph 62 as the concentration of antibody required to block binding of PD-1/PD-L1 by 50%)” value worked out at 0.163 µg/mL. In assay [7], this molecule came in with a Kd of 0.351 nM, a koff of 0.00132 s⁻¹ and a kon of 3.77e+06 M⁻¹ s⁻¹. The same molecule came in with an EC50 in assay [8] of 0.00334 µg/mL.

B2: QJ001-45 (antibody, human IgG1, lambda, V domains shown)
VH: EVQLVQSGAEVKKPGSSVKVSCKASGGTFSSYAISWVRQAPGQGLEWMGRIIPILGIANYAQKFQGRVTITADKSTSTAYMELSSLRSEDTAVYYCTTFFQQWLYAFDIWGQGTMVTVSS
VL: QAVLTQPSSVSGAPGQRVTISCFGSSSNIGAGYDVHWYQQLPGTAPKLLIYGNNNRPSGVPDRFSGSKSGTSASLAITGLQAEDEADYYCGSYDSSLSGSVFGGGTKLTVLG
notes: also called P02897
As to B2, in assay [5], the “KD (Parental Ab)/KD (Candidate Ab)” value is 10.4 fold. In addition, the “EC50 (assay not named; EC50 is defined in paragraph 62 as the concentration of antibody required to block binding of PD-1/PD-L1 by 50%)” value in assay [6] stood at 0.0966 µg/mL. In assay [7], this molecule registered a Kd of 0.0338 nM, a koff of 0.000145 s⁻¹ and a kon of 4.29e+06 M⁻¹ s⁻¹.

By Kd is commonly meant the equilibrium constant for the complex coming apart. Low values mean a tighter complex, high ones a looser complex. What is called koff is the rate constant with which the complex falls apart. For orientation: kon means the rate constant with which the complex forms. Broadly, the EC50 is the concentration needed to bring the measured effect to its halfway point.
